Test results as given in patent publication US20240398942A1 (CHIA TAI TIANQING PHARMACEUTICAL GROUP, published 2024).
Where a chain is given by its changes, count along the chain named. Like-named read-outs stand apart in the source and are kept apart here. Each block holds one binder with its values, some of them ahead of it.

Experiments:
[1] = molecular target: T1, recombinant human CD40-his (Acro biosystems, Cat. No. CD0-H5228) (human, UniProt P25942 21-193); assay: BLI (Octet RED 96), antibody captured from cell supernatant on AHC sensor, human CD40-his as analyte, 1:1 fit
T1 construct: Bought protein; also called human CD40-his protein; not shown: His tag
T1 sequence (P25942 21-193 limits assumed): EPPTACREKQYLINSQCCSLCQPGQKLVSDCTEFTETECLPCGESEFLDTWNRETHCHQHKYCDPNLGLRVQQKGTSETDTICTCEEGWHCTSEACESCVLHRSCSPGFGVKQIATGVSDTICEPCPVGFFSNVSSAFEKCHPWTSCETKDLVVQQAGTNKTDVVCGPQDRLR
Procedure: After six days of culture in a shake flask, the cell supernatant containing the humanized antibodies huC1H1-V1 to huC1H1-V4 was harvested and the binding affinity of the antibodies to human CD40 was determined on an Octet system (Fortebio, Octet RED 96) according to the following procedures. Briefly, an anti-human IgG Fc capture (AHC) biosensor (from ForteBio) was pre-soaked in a 10 mM glycine solution (pH 1.5) for 3 s, and then soaked in a running buffer (PBST containing 0.5% w/v of BSA) for 3 s. The pre-soaking and soaking procedures were repeated 3 times. Then, the sensor was soaked in the cell supernatant containing the humanized anti-CD40 antibody, chimeric antibody C1H1 dissolved in HBS-EP⁺ buffer at a concentration of 5 μg/mL, or the benchmark dissolved in HBS-EP⁺ buffer at a concentration of 5 μg/mL for 120 s, and then soaked in the running buffer for 5 min. The new baseline was run in the running buffer for 180 s. The sensor was then soaked for 120 s in human CD40-his protein (Acro biosystems, Cat. No. CD0-H5228) 2-fold serially diluted from 40 nM in the running buffer and for 10 min in the running buffer […]. Finally, the sensor was pre-soaked in a 10 mM glycine solution (pH 1.5) for 3 s, and then soaked in the running buffer for 3 s. The pre-soaking and soaking procedures were repeated 3 times. The association and dissociation curves were fitted to a 1:1 Langmuir binding model using ForteBio Data Analysis 8.1.

[2] = molecular target: T2, human CD40-Fc protein (human, biotinylated (sites not given) in the capture ELISA and the benchmark blocking ELISA; not biotinylated in the ligand blocking ELISA); assay: capture ELISA: antibody captured on coated goat anti-human IgG F(ab')2, biotinylated human CD40-Fc 1.15 nM, streptavidin-HRP, OD(450-630)
T2 construct: also called biotinylated human CD40-Fc
T2 sequence (chain, as listed by the source limits assumed): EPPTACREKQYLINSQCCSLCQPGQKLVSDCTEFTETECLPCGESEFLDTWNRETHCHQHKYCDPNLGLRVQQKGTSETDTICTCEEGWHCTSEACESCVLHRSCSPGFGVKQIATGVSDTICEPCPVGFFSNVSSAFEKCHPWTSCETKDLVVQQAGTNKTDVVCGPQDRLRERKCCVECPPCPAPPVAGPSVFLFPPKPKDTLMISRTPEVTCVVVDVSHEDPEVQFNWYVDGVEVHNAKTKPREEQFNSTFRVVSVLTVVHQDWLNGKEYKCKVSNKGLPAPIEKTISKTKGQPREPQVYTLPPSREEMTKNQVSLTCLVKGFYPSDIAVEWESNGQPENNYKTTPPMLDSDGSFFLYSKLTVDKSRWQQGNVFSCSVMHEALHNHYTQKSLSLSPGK
Procedure: (§1) The plate was washed once with a washing buffer (PBS+0.05% v/v of Tween-20, PBST) and then blocked with 200 μL/well blocking buffer (PBST containing 5% w/v of skim milk) for 2 h at 37° C. The plate was washed 4 times, and the anti-CD40 antibody of the present application, BM1, BM2, and a negative control hIgG (human immunoglobulin for intravenous injection (pH 4), Hualan Biological Engineering Inc.) serially 5-fold diluted from 66.7 nM in a PBST containing 2.5% w/v of skim milk was added at 100 μL per well. The plate was incubated for 40 min at 37° C. and washed 4 times. A biotinylated human CD40-Fc protein (amino acid residues 21-193 of SEQ ID NO: 30 linked to the N terminus of amino acid residues 99-330 of SEQ ID NO: 28, dissolved in PBST containing 2.5% w/v of skim milk at a concentration of 1.15 nM) was added at 100 μL/well to a 96-well plate coated with the anti-CD40 antibody. The plate was incubated at 37° C. for 40 min and washed 4 times. An HRP-labeled streptavidin (diluted at 1:10000 in PBST, Jackson Immuno Research, Cat. No. 016-030-084) was added at 100 μL/well, and the plate was incubated at 37° C. for another 40 min. After the last wash, 100 μL/well of ELISA substrate TMB (Innoreagents, Cat. No. TMB-S-002) was added and the plate was incubated at room temperature. After 3-10 min, the reaction was stopped by adding 1 M H₂SO₄ at 50 µL/well, and the absorbance of each well was read on a microplate reader using the dual wavelength mode (TMB detection wavelength: 450 nm, reference wavelength: 630 nm). Curves of OD(450-630) values vs. antibody concentration were plotted. Data were analyzed using Graphpad Prism software, and EC₅₀ values were obtained.

[3] = molecular target: T2, human CD40-Fc protein; assay: as above; remark: listed apart in the source
Procedure: as §1

B1: humanized antibody huC1H1-V3 (antibody, human IgG2, kappa, V domains shown)
VH: EVQLVESGGGLVKPGGSLRLSCAASGFTFSNYGISWVRQAPGKGLEWVASISSGGDNTYYPDNVKGRFTISRDNAKNSLYLQMNSLRAEDTAVYYCARAGEKAMDYWGQGTLVTVSS
VL: EIVLTQSPATLSLSPGERATLSCRASQTINNNLHWYQQKPGQAPRLLIYYASQSISGIPARFSGSGSGTDFTLTISSLEPEDFAVYYCQQFSSWPLTFGGGTKVEIKR
notes: Human IgG2 / kappa; Tested as cell supernatant in the Octet assay
Kd [1]: 5.41 nM
koff [1]: 0.00283 s⁻¹
kon [1]: 523000 M⁻¹ s⁻¹

B2: humanized antibody huC1H1-V4 (antibody, human IgG2, kappa, V domains shown)
VH: B1 VH with A49S
VL: B1 VL
notes: as for B1
Kd [1]: 8.66 nM
koff [1]: 0.00367 s⁻¹
kon [1]: 424000 M⁻¹ s⁻¹

B3: chimeric antibody 1D1 (antibody, human IgG1, kappa, V domains shown)
VH: EVQLQQSGPELVKPGASVKMSCKASGYTFTDYVMHWVKQKPGQGLECIGYINPYNDGTTYNEKFKGKATLTSDKSSNAAYLELSSLTSEDSAVYYCARGFLRESWFGYWGQGTLVTVSA
VL: DVLLTQTPLSLPVSLGDQASISCRSSQNIVHSNGNTYLDWYLQKPGQSPKLLIYKVSNRFSGVPDRFSGSGSGTDFTLKISRVEAEDLGVYYCFQGSHVPPTFGGGTKLELKR
notes: Mouse variable regions on human IgG1 / kappa constant regions
EC50 [2]: 15 nM

B5: chimeric antibody 1A3 (antibody, human IgG1, kappa, V domains shown)
VH: EVQLQQSGPELVKTGASVKISCKASGYSFIGYYLHWVKQSLGKGLEWIGYISCHDGTIIYNQKFKGKATFTLDTSSSTAYMQFSSLTSEDSAVYFCARFLNYYGSNYAMDYWGQGTSVTVSS
VL: DIVMTQSHKFMSTSVGDRVSITCKASQDVGPAVAWYQQKPGQSPKLLIYWASTRHTGVPDRFTGSGYGTDFTLTINNVQSEDLADYFCQQYFTYPLTFGGGTKLEIKR
notes: as for B3
EC50 [3]: 1.33 nM

More lines, now with the values ahead:

EC50 [2]: 8.7 nM
B4: mouse anti-CD40 monoclonal antibody 1D1 (parent of chimeric antibody 1D1) (antibody, V domains shown)
VH: B3 VH
VL: DVLLTQTPLSLPVSLGDQASISCRSSQNIVHSNGNTYLDWYLQKPGQSPKLLIYKVSNRFSGVPDRFSGSGSGTDFTLKISRVEAEDLGVYYCFQGSHVPPTFGGGTKLELK
notes: Parent mouse antibody of chimeric 1D1; also called parent antibody

EC50 [3]: 0.592 nM
B6: mouse anti-CD40 monoclonal antibody 1A3 (parent of chimeric antibody 1A3) (antibody, V domains shown)
VH: B5 VH
VL: DIVMTQSHKFMSTSVGDRVSITCKASQDVGPAVAWYQQKPGQSPKLLIYWASTRHTGVPDRFTGSGYGTDFTLTINNVQSEDLADYFCQQYFTYPLTFGGGTKLEIK
notes: Parent mouse antibody of chimeric 1A3; also called parent antibody
